Data taken from patent US20240239875A1 (CURIA IP, published 2024).

Target: T1, SARS-CoV-2 S2 domain (SARS-CoV-2, UniProt P0DTC2 686-1213)
Experiment: ELISA (FIG. 10 summary)

| Binder | binding result |
| --- | --- |
| 7-N20-A (antibody, V domains shown) VH: QVQLVETGGGLVRPGNSLKLSCVTSGFTFSNYRMHWLRQPPGKRLEWIGIITDKSDNYGANYAESVKGRFAISRDDSKSSVYLEMKRLREEDTATYFCSRDGYDWYFDLWGTGTTVTVSS VL: DIVMTQSHKFMSTSVGDRVRITCKASQDVGIVVAWYQQKPGQSPKLLIYWASTRHTGVPDRFTGSGSGTDFTLTISNVQSEDLADYFCQQYSSYPTFGGGTKLEIK | no binding |

Target: T1, SARS-CoV-2 S2 domain
Experiment: ELISA (FIG. 2C grouping)

| Binder | binding result |
| --- | --- |
| 9-F6-A (antibody, V domains shown) VH: EVQLQQSGPELVKPGASVKMSCKASGYTFTSYIMHWVKQKPGQGLEWIGYILPYNDGTKYNEKFKGKATLTSDKSSSTAYMELRSLTSEDSAVYYCARWGYSNFLDSWGQGTTLTVSS VL: DIQMTQTTSSLSASLGDRVTISCRASQDINNYLNWYQQKPDGTVKLLIYYTSRLHSGVPSRFSGSGSGTDYSLTIRNLEQEDIATYFCQQGNTLPPTFGGGTKLEIK | no binding |
| 2-G20-A (antibody, V domains shown) VH: EVQLQQSGPELVKPGASVKMSCKASGYTFPSYVLHWVKQKPGQGLEWIGYIYPYNDGTNYNEKFKGKATLTSDKSSSTAYMELSSLTSEDSAVYYCARGDYGDSAWFPYWGQGTLVTVSA VL: DIVLTQSPASLAVSLGQRATISCRASKSVSTSGYSYMHWYQQKPGQPPKLLIYLASNLKSGVPARFSGGGSGTDFTLNIHPVEEEDAATYYCQLSRELPWTFGGGTKLEIK | no binding |
| 6-O12-A (antibody, V domains shown) VH: QVQLQQPGTELVKPGASVKLSCKASGYTFTSYWMHWVKQRPGQGLEWIGNINPSNGGTNYNEKFRSKATLTVDKSSSTAYMQLSSLTSEDSAVYYCARLGWFLPLGSWGQGTTLTVSS VL: QIVLTQSPAIMSASLGEVITLTCSASSSVSYMHWYQQKSGTSPKLLIYSTSNLASGVPSRFSGSGSGTFYSLTISSVEAEDAADYYCHQWSGYMYTFGGGTKLEIK | no binding |
| 1-L10-A (antibody, V domains shown) VH: EVKLEESGGGLVQPGGSMKLSCVASGFTFNNYWMNWVRQSPEKGLEWVAQMRLKSDNYATHYAESVKGRFTISRDDSKSSVYLQMNNLRAEDTGIYYCIEGYWTYWGQGTLVTVSA VL: QIVLTQSPAIMSASLGERVTMTCTASSSVSSSYLHWYQQKPGSSPKLWIYSTSNLASGVPARFSGNGSGTSYSLTISSMEAEDAATYYCLQYHRSPPYTFGGGTKLEIK | no binding |
| 7-D7-A (antibody, V domains shown) VH: QVQLKESGPGLVAPSQSLSITCTVSGFSLTSYAISWVRQPPGKGLEWLGVIWPGGGTNYNSALKSRLSISKDNSKSQVFLKMNSLQTDDTAKYYCARTGYYFDYWGQGTTLTVSS VL: QLILTQSPAIMSASPGEKVTMTCSASLSVNYMYWFQQKPGTSPKRWIHDTSKLASGVPARFSGSGSGTSYSLTISSMEAEDAATYYCQQWSSNPPMYTFGGGTKLEIK | no binding |
| 8-A17-A (antibody, V domains shown) VH: QVQLKESGPGLVAPSQSLSITCTVSGFSLTSYAISWVRQPPGKGLEWLGVVWPGGGTNYNSALKSRLSINKDNSKSQVFLKMNSLQTDDTGRYYCARTGYHFDYWGQGTTLTVSS VL: QIVLTQSPAIMSASPGEKVTMTCSVSSSVSYMHWYQQKSGTSPKRWIYDTSKLASGVPARFSGSGSGTSYSLTISSMEAEDAATYYCQQWSSNPPMYTFGGGTKLEIK | no binding |
